Assay [1] addresses ActRIIB-huFc (human). The experiment in a line: BIAcore. Background: Surface plasmon resonance follows binding to a sensor surface in real time, without labels.
The target in assay [2] is ActRIIB-huFc (human). Description: KinExA. (In general: In KinExA the mixture passes briefly over coated beads that capture the unbound partner.)
Assay [3] deals with ActRIIB-huFc (human). Description: binding affinity, method not stated.

This passage reports Kd and fold improvement of affinity over the parental molecule R31-1 results from patent US20240327526A1.

Chain of ActRIIB-huFc (human) (chain, as listed by the source limits assumed, form in doubt): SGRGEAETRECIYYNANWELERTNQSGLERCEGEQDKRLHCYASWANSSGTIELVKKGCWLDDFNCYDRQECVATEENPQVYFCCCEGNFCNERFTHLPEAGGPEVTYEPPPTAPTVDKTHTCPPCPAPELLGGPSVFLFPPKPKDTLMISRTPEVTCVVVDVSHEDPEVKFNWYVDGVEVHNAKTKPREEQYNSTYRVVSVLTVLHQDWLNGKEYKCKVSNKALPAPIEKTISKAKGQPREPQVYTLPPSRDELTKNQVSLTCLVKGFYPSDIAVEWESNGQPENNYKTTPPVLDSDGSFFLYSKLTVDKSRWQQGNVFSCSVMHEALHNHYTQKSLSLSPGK

B1: M43 (antibody, human IgG2, lambda, V domains shown)
VH: EVQLLESGGGLVQPGGSLRLSCAASGFTFRNSAMSWVRQAPGKGLEWVSGISVTGGSTFYTDSVKGRFTVSRDNSRNTLYLQMNSLRAEDTAVYYCAKVYYYSFFDYWGQGTLVTVSS
VL: QTVVTQEPSFSVSPGGTVTLTCGFNSGSVSTSYWPSWYQQTPGQAPRTLIYNTNTRSSGVPDRFSGSILGNKAALTITGAQADDESDYYCVLWMGSGIWVFGGGTKLTVLG
With B1, the results for the Kd in assay [1] and in assay [2] were 1 pM and less than 1 pM, respectively. Also, the fold improvement of affinity over the parental molecule R31-1 in assay [2] is 10 fold.

B2: Anti-ActRIIB human IgG R31-1 (antibody, V domains shown)
VH: EVQLLESGGGLVQPGGSLRLSCAASGFTFRNYAMSWVRQAPGKGLEWVSGISVTGGSTYYTDSVKGRFTVSRDNSRNTLYLQMNSLRAEDTAVYYCAKVYYSSFFDYWGQGTLVTVSS
VL: QTVVTQEPSFSVSPGGTVTLTCGFNSGSVSTSYYPSWYQQTPGQAPRTLIYNTNTRSSGVPDRFSGSILGNKAALTITGAQADDESDYYCVLYMGSGIWVFGGGTKLTVLG
With B2, the Kd in assay [1] is 10 pM; in assay [3] it was less than 10 pM.

Usually Kd stands for the free concentration of one partner at which half of the binding sites on the other are occupied at equilibrium, for simple one-to-one binding.
